# Source: PMC7750480, “A hybrid approach reveals the allosteric regulation of GTP cyclohydrolase I” (Proceedings of the National Academy of Sciences of the …, 2020)
# T1: GCH1 (Homo sapiens, UniProt P30793)
# T1 construct: The hGCH1 (42-250, N-terminal 6xHis Tag and TEV cleavage site); 6xHis (N); TEV cleavage site (N); made in house; host or cells: E. coli BL21(DE3)
# T1 sequence (P30793 42-250): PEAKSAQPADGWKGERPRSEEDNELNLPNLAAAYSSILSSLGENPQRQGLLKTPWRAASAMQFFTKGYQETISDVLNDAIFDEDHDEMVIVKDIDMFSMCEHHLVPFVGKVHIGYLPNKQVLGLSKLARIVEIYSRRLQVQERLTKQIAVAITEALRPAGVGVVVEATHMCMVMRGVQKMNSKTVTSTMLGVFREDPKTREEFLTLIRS
# Key:
# [1] = target: T1, GCH1; experiment: STD NMR assay with active site reporter ligand GTP; assay type: binding; details: addition of another active site binder
# Excerpt: Supplemental Figure 6: Detection of product formation and STD NMR assay. A) Enzyme activity assay for GCH1 based on colorimetric detection of H2NTP or 1H-NMR detection of formate. […]
# inhibitor (e.g. BH4). B) STD NMR is capable to detect GTP binding (green). Addition of another active site binder (8-oxo […]
# STD NMR enhancement of substrate GTP in the presence of allosteric regulator BH4 (red). This screening assay allows for the identification of allosteric binders. C) Correlation of activity in functional NMR assay and STD NMR enhancement of active site reporter ligand GTP.
# (1 picture or pasted object on this page, not shown here)
# [2] = substrate: Nc1nc2c(ncn2[C@@H]2O[C@H](COP(=O)(O)OP(=O)(O)OP(=O)(O)O)[C@@H](O)[C@H]2O)c(=O)[nH]1; experiment: enzyme kinetics, H2NTP formation at 330 nm, WT GCH1; assay type: biochemical, human; details: other: substrate GTP 1-2000 µM, without GFRP, not stimulated/inhibited; pH 7.5; 37.0 °C
# Description: (§1) In order to test the role of the key residues H126, D127, E128, R235, and R241 involved in allosteric inhibitor binding and conformational change, various point mutants were prepared and tested for their ability to be stimulated and inhibited by effector molecules in the presence or absence of GFRP. […] Enzyme activity was evaluated using an activity assay measuring the formation of the product H2NTP at 330 nm with increasing GTP concentrations.
# (§2) GTPCH-I specific enzyme activity was determined by spectrometric measuring of the concentration of its direct product H2NTP. Synergy H1 (BioTek Instruments) and Gen5 2.01 software were used to evaluate H2NTP concentration and the maximal turnover rate (Vmax) within each measuring interval. H2NTP concentration was measured at 330 nm over a measuring period of 2 h using a measuring interval of 2 min to 4 min at 37 °C. Samples were prepared using 2 μM GTPCH-I, varying concentrations of GTP (1 μM to 2,000 µM) and in the absence or presence of 15 mM phenylalanine, 0.1 mM BH4, or 3 μM GFRP. The assay buffer used was 50 mM Tris/HCl, pH 7.5, 100 mM KCl. The specific enzyme activity (A) was calculated using the path length of 0.15 cm and the extinction coefficient […] = 6,300 M^−1⋅cm^−1 H2NTP. […] All enzymatic data were, at least, measured in triplicate (n = 3).
# [3] = substrate: Nc1nc2c(ncn2[C@@H]2O[C@H](COP(=O)(O)OP(=O)(O)OP(=O)(O)O)[C@@H](O)[C@H]2O)c(=O)[nH]1; experiment: enzyme kinetics, H2NTP formation at 330 nm, R241A-GCH1; assay type: biochemical, human; details: other: substrate GTP 1-2000 µM, without GFRP, not stimulated/inhibited; pH 7.5; 37.0 °C
# Description: as §1, §2
# [4] = substrate: Nc1nc2c(ncn2[C@@H]2O[C@H](COP(=O)(O)OP(=O)(O)OP(=O)(O)O)[C@@H](O)[C@H]2O)c(=O)[nH]1; experiment: enzyme kinetics, H2NTP formation at 330 nm, D127A GCH1; assay type: biochemical, human; details: other: substrate GTP 1-2000 µM, without GFRP, not stimulated/inhibited; pH 7.5; 37.0 °C
# Description: as §1, §2
# [5] = substrate: Nc1nc2c(ncn2[C@@H]2O[C@H](COP(=O)(O)OP(=O)(O)OP(=O)(O)O)[C@@H](O)[C@H]2O)c(=O)[nH]1; experiment: enzyme kinetics, H2NTP formation at 330 nm, F122A GCH1; assay type: biochemical, human; details: other: substrate GTP 1-2000 µM, without GFRP, not stimulated/inhibited; pH 7.5; 37.0 °C
# Description: as §1, §2
# [6] = substrate: Nc1nc2c(ncn2[C@@H]2O[C@H](COP(=O)(O)OP(=O)(O)OP(=O)(O)O)[C@@H](O)[C@H]2O)c(=O)[nH]1; experiment: enzyme kinetics, H2NTP formation at 330 nm, R235A-GCH1; assay type: biochemical, human; details: other: substrate GTP 1-2000 µM, without GFRP, not stimulated/inhibited; pH 7.5; 37.0 °C
# Description: as §1, §2
molecule,measurement,setting,value
"Nc1nc2c([nH]c(=O)n2[C@@H]2O[C@H](COP(=O)(O)OP(=O)(O)OP(=O)(O)O)[C@@H](O)[C@H]2O)c(=O)[nH]1 [8-oxo GTP, 8-oxo-GTP]",effect on STD NMR signal of GTP (active site competition),[1],loss of the signal
"GCH1 (WT) (Homo sapiens) (protein, The hGCH1 (42-250, N-terminal 6xHis Tag and TEV cleavage site); 6xHis (N); TEV cleavage site (N); made in house; host or cells: E. coli BL21(DE3)) PEAKSAQPADGWKGERPRSEEDNELNLPNLAAAYSSILSSLGENPQRQGLLKTPWRAASAMQFFTKGYQETISDVLNDAIFDEDHDEMVIVKDIDMFSMCEHHLVPFVGKVHIGYLPNKQVLGLSKLARIVEIYSRRLQVQERLTKQIAVAITEALRPAGVGVVVEATHMCMVMRGVQKMNSKTVTSTMLGVFREDPKTREEFLTLIRS",Km,[2],106 µM
"R241A-GCH1 (Homo sapiens; R241A) (protein, The hGCH1 (42-250, N-terminal 6xHis Tag and TEV cleavage site); 6xHis (N); TEV cleavage site (N); made in house; host or cells: E. coli BL21(DE3)) PEAKSAQPADGWKGERPRSEEDNELNLPNLAAAYSSILSSLGENPQRQGLLKTPWRAASAMQFFTKGYQETISDVLNDAIFDEDHDEMVIVKDIDMFSMCEHHLVPFVGKVHIGYLPNKQVLGLSKLARIVEIYSRRLQVQERLTKQIAVAITEALRPAGVGVVVEATHMCMVMRGVQKMNSKTVTSTMLGVFREDPKTAEEFLTLIRS",Km,[3],306 µM
"D127A GCH1 (Homo sapiens; D127A) (protein, The hGCH1 (42-250, N-terminal 6xHis Tag and TEV cleavage site); 6xHis (N); TEV cleavage site (N); made in house; host or cells: E. coli BL21(DE3)) PEAKSAQPADGWKGERPRSEEDNELNLPNLAAAYSSILSSLGENPQRQGLLKTPWRAASAMQFFTKGYQETISDVLNDAIFDEDHAEMVIVKDIDMFSMCEHHLVPFVGKVHIGYLPNKQVLGLSKLARIVEIYSRRLQVQERLTKQIAVAITEALRPAGVGVVVEATHMCMVMRGVQKMNSKTVTSTMLGVFREDPKTREEFLTLIRS",Km,[4],483 µM
"F122A GCH1 (Homo sapiens; F122A) (protein, The hGCH1 (42-250, N-terminal 6xHis Tag and TEV cleavage site); 6xHis (N); TEV cleavage site (N); made in house; host or cells: E. coli BL21(DE3)) PEAKSAQPADGWKGERPRSEEDNELNLPNLAAAYSSILSSLGENPQRQGLLKTPWRAASAMQFFTKGYQETISDVLNDAIADEDHDEMVIVKDIDMFSMCEHHLVPFVGKVHIGYLPNKQVLGLSKLARIVEIYSRRLQVQERLTKQIAVAITEALRPAGVGVVVEATHMCMVMRGVQKMNSKTVTSTMLGVFREDPKTREEFLTLIRS",Km,[5],434 µM
"R235A-GCH1 (Homo sapiens; R235A) (protein, The hGCH1 (42-250, N-terminal 6xHis Tag and TEV cleavage site); 6xHis (N); TEV cleavage site (N); made in house; host or cells: E. coli BL21(DE3)) PEAKSAQPADGWKGERPRSEEDNELNLPNLAAAYSSILSSLGENPQRQGLLKTPWRAASAMQFFTKGYQETISDVLNDAIFDEDHDEMVIVKDIDMFSMCEHHLVPFVGKVHIGYLPNKQVLGLSKLARIVEIYSRRLQVQERLTKQIAVAITEALRPAGVGVVVEATHMCMVMRGVQKMNSKTVTSTMLGVFAEDPKTREEFLTLIRS",Km,[6],328 µM
